# Patent US20230192860A1 (Bristol-Myers Squibb, published 2023)
# Residue numbers refer to the chain shown, from its start.
# B1: P1-061029.IgG1.3 (antibody)
# heavy: EVQLVESGGGLVQPGKSLRLSCAASGFTLDDYAMHWVRQAPGKGLEWVSGINWNSANIGYADSVKGRFTISRDNAKNSLYLQMNSLRTEDTALYYCAKVPGYSGGWIDAFDVWGQGTMVTVSSASTKGPSVFPLAPSSKSTSGGTAALGCLVKDYFPEPVTVSWNSGALTSGVHTFPAVLQSSGLYSLSSVVTVPSSSLGTQTYICNVNHKPSNTKVDKRVEPKSCDKTHTCPPCPAPEAEGAPSVFLFPPKPKDTLMISRTPEVTCVVVDVSHEDPEVKFNWYVDGVEVHNAKTKPREEQYNSTYRVVSVLTVLHQDWLNGKEYKCKVSNKALPAPIEKTISKAKGQPREPQVYTLPPSREEMTKNQVSLTCLVKGFYPSDIAVEWESNGQPENNYKTTPPVLDSDGSFFLYSKLTVDKSRWQQGNVFSCSVMHEALHNHYTQKSLSLSPG
# light: not shown
# notes: IgG1.3; also called P1-061029 (parent); P1-061029-18
# B2: P1-068761.IgG1.3 (antibody)
# heavy: B1 heavy with D30E, Y32E, A56E, N57E, G104H, F110E
# light: not shown
# notes: IgG1.3; also called P1-068761-20; P1-068761 hIgG1.3f
# Legend:
# [1] = biological target: T1, avidin (ThermoFisher Scientific catalog #21128) (UniProt P02701 25-152); assay: SPR 25C, Ab on Protein A, pH 6 and pH 7.4
# T1 construct: pI control protein
# T1 sequence (P02701 25-152 limits assumed): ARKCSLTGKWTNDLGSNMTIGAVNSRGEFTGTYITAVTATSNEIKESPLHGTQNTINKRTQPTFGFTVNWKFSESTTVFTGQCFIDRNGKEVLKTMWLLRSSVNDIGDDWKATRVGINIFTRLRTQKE
# [2] = biological target: T2, BSA (Calbiochem catalog #126593) (UniProt P02769 25-607); assay: SPR 25C, Ab on Protein A, pH 6 and pH 7.4
# T2 construct: pI control protein
# T2 sequence (P02769 25-607 limits assumed): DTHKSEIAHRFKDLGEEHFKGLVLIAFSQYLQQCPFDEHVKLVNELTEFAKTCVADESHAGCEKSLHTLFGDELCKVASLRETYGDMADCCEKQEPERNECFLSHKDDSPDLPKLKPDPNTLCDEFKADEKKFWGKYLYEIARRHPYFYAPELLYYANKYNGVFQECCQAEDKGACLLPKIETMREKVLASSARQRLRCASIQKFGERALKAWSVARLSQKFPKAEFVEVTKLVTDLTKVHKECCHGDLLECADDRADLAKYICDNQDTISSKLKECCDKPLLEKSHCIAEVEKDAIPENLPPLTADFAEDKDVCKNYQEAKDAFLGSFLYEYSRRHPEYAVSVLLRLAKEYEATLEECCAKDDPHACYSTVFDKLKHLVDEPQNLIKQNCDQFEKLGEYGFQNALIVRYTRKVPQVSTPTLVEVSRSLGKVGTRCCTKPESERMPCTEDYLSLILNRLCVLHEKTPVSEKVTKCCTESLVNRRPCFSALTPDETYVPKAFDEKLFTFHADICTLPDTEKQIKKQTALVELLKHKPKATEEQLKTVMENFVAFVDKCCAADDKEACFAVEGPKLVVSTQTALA
# [3] = biological target: T3, monovalent hVISTA-ECD (amino acids 32-193 of SEQ ID NO: 1 with a 7xHis tail) (human, UniProt Q9H7M9 33-193); assay: SPR 37C, pH 6.9 over pH 6.0
# T3 construct: analyte of the SPR assays; also called huVISTA-His; human VISTA-ECD
# T3 sequence (Q9H7M9 other isoform, or with tags, fused parts or gaps limits assumed): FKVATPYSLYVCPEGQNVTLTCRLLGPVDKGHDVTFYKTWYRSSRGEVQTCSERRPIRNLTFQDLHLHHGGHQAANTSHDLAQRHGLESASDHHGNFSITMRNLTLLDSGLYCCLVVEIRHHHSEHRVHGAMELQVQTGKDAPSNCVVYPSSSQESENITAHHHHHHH
# Procedure: (§1) Human VISTA binding kinetics of P1-061029 (“ ‘029”), P1-068761 (“ ‘761”) and P1-068767 (“ ‘767”) (as IgG1.3 antibodies) were measured at pH values between pH 7.4 and pH 6.0, i.e., at pH 6.9 and pH 6.45 using a Biacore® T100 instrument (GE Healthcare). […] Antibodies were diluted to 25 nM in PBST pH 7.4, and were captured across active biosensor flow cells at 5 ul/min for 45 seconds. A concentration series of 100 - 0.78 nM monovalent hVISTA-ECD (SEQ ID NO: 325) was prepared pH 7.4, 6.9, 6.45 and 6.0 running buffers, and was injected over the captured antibodies at 40 ul/min to measure association and dissociation. Two 15 second injections of 10 mM glycine pH 1.5 were used to regenerate the Protein A capture surface between assay cycles. Rate constants ka (kₒₙ) and kd (koff) were derived from reference flow cell and 0 nM blank-subtracted sensorgrams, and were fit to a 1:1 binding model in Biacore® T200 Evaluation Software v.2.0. The affinity constant, KD was calculated as the ratio of rate constants koff/kₒₙ for each VISTA antibody. Ratios of koff and KD at each pH relative to pH 6.0 were calculated to evaluate how the VISTA koff and KD change as the buffer pH shifts to physiological, and are shown in Table 7. […] As the buffer pH shifts from acidic to physiological, VISTA koff and KD both weaken for ‘761 and ‘767. Physiological pH data for ‘761 and ‘767 for comparison is referenced from Table 7 and noted with an asterisk (*).
# [4] = biological target: T3, monovalent hVISTA-ECD (amino acids …); assay: SPR 37C, pH 6.0 over pH 6.0
# [5] = biological target: T3, monovalent hVISTA-ECD (amino acids …); assay: SPR 37C, Ab on Protein A, hVISTA-ECD 50-5 nM, pH 6.0, average
# Outline: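 Biacore T100 at 37C: antibodies (IgG1.3 format, 25 nM in PBST pH 7.4) captured on Protein A, then 50 - 5 nM monovalent hVISTA-ECD injected in pH 7.4 or 6.0 running buffer. Reference- and blank-subtracted sensorgrams fit to 1:1 model; KD = koff/kon.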
# [6] = biological target: T3, monovalent hVISTA-ECD (amino acids …); assay: SPR 37C, pH 7.4 over pH 6.0
# Procedure: For this assay, ‘029, ‘761 and ‘767were reformatted as hIgG1f isotype and were expressed as both standard hIgG1f and in hIgG1f afucosylated formats to compare against the hIgG1.3f Fc. An SPR kinetics assay was conducted to measure koff and KD binding affinity measurements for VISTA Abs at acidic and physiological pH using a Biacore® T100 instrument (GE Healthcare). […] Antibodies were diluted to 25 nM in PBST pH 7.4, and were captured across active biosensor flow cells at 5 ul/min for 45 seconds. A concentration series of 1600 - 0.78 nM (pH 7.4) and 100 - 0.78 nM (pH 6.0) monovalent hVISTA-ECD (SEQ ID NO: 325) was prepared running buffer, and was injected over the captured antibodies at 40 ul/min to measure association and dissociation. Two 15 second injections of 10 mM glycine pH 1.5 were used to regenerate the Protein A capture surface between assay cycles. Rate constants ka (kₒₙ) and kd (koff) were derived from reference flow cell and 0 nM blank-subtracted sensorgrams, and were fit to a 1:1 binding model in Biacore® T200 Evaluation Software v.2.0. The affinity constant, KD was calculated as the ratio of rate constants koff/kₒₙ for each VISTA antibody. Ratios of koff and KD at pH 7.4 / pH 6.0 were calculated to compare off-rate and affinity improvement at acidic pH relative to physiological pH.
# [7] = biological target: T3, monovalent hVISTA-ECD (amino acids …); assay: SPR 37C, Ab on Protein A, hVISTA-ECD 100-0.78 nM, pH 6.0
# Procedure: as §1
# [8] = biological target: T3, monovalent hVISTA-ECD (amino acids …); assay: SPR 37C, Ab on Protein A, hVISTA-ECD 100-0.78 nM, pH 6.45
# Procedure: as §1
Binder,binding result [1],binding result [2],KD ratio to pH 6.0 [3],koff ratio to pH 6.0 [3],KD ratio to pH 6.0 [4],koff ratio to pH 6.0 [4],Kd [5],koff [5],kon [5],KD ratio (7.4/6) [6],kd ratio (7.4/6) [6],Kd [7],koff [7],kon [7],Kd [8],koff [8],kon [8]
B1,no binding (tested: 10 RU; analyte 100-10 nM),no binding (tested: 10 RU; analyte 100-10 nM),7.1,1,1,1,3.6 nM,0.0058 s⁻¹,1.6e+06 M⁻¹ s⁻¹,5.8,0.9,2 nM,0.0057 s⁻¹,2.9e+06 M⁻¹ s⁻¹,5.3 nM,0.004 s⁻¹,740000 M⁻¹ s⁻¹
B2,no binding (tested: 10 RU; analyte 100-10 nM),no binding (tested: 10 RU; analyte 100-10 nM),170,13.4,1,1,3.8 nM,0.0014 s⁻¹,380000 M⁻¹ s⁻¹,2560,26.3,1.1 nM,0.00066 s⁻¹,600000 M⁻¹ s⁻¹,20 nM,0.0021 s⁻¹,110000 M⁻¹ s⁻¹
